Source: US20140099313A1

Experiments:
[1] = molecular target: human IL-13 wild type (human) (UniProt P35225); test: competition, ELISA RBA: IL-13 to IL-13Rα2/Fc
[2] = molecular target: human IL-13 wild type (human) (UniProt P35225); test: competition, cell surface RBA: IL-13 to IL-13Rα2 on COS cells

Chain of human IL-13 wild type (human) (P35225 other isoform, or with tags, fused parts or gaps limits assumed): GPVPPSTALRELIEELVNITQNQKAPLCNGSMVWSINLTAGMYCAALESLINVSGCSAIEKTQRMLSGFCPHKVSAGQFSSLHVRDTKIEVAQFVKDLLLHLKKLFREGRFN

B1: MJ2-7 (antibody, from another filing, V domains shown)
VH: EVQLQQSGAELVKPGASVKLSCTGSGFNIKDTYIHWVKQRPEQGLEWIGRIDPANDNIKYDPKFQGKATITADTSSNTAYLQLNSLTSEDTAVYYCARSEENWYDFFDYWGQGTTLTVSS
VL: DVLMTQTPLSLPVSLGDQASISCRSSQSIVHSNGNTYLEWYLQKPGQSPKLLIYKVSNRFSGVPDRFSGSGSGTDFTLKISRVEAEDLGVYYCFQGSHIPYTFGGGTKLEIK
percent inhibition at 100 nM [1]: 60% | percent inhibition at 100 nM [2]: 70%
